Read-outs that look alike come from different tables or passages of the source.
Legend:
[1] = type: in vitro ADME; details: human
Experimental: In vitro serum binding studies for both ^68Ga-labelled NOTA-TATE and DOTA-TATE were carried out by following a generalized procedure summarized below. One millilitre of fresh anticoagulated (heparinized) human plasma was prepared. Freshly labelled compound (3.7 MBq, 0.1 mCi) was added to three centrifuge tubes, each containing 0.1 mL of human plasma. After incubation at 37 °C for 2 h, 1 mL of ice-cold methanol was added to each tube. The mixtures were separated by centrifugation (5 min, 3000 rpm) to collect the supernatant, which was repeated three times. A gamma counter was then used to measure the radioactivity of the supernatant (A) and the precipitate (B) in counts per minute (CPM); the plasma-protein binding rate was calculated as PPB = B/(A + B)100%, and the average of three tubes was recorded.

[2] = Biodistribution in AR42J tumour-bearing nude mice; details: mouse, in vivo; for tissue to tissue ratio at 0.25 h / tissue to tissue ratio at 0.5 h / tissue to tissue ratio at 1 h / tissue to tissue ratio at 2 h: both sexes, nude, iv, 0.1 mCi, total radioactivity
Experimental: (§1) Tumour cells were subcutaneously injected into the left forelimb of each nude mouse. Biodistribution and imaging studies were conducted when the tumour volume reached at least 1.0 × 1.0 × 1.0 cm^3.

[3] = Micro-PET/CT imaging of AR42J tumour-bearing nude mice; details: both sexes, mouse, in vivo, iv, 2.96 MBq, total radioactivity, nude mice bearing AR42J tumours, read-out: SUVmax, 3D micro-PET/CT
Experimental: as §1
Six (3 female and 3 male) mice with AR42J tumour xenografts (15–20 g) were used in the imaging study. All tumour-bearing mice were anaesthetized by intranasal inhalation of isoflurane. […] Images were acquired and reconstructed using micro-PET/CT at 30 min and 2 h after intravenous injection.

[4] = test system: KM mice; details: mouse, in vivo
Experimental: Thirty KM mice were randomly divided into a control group, a ^68Ga- NOTA-TATE low-dose group (100 μCi) and a high-dose group (1 mCi). Each group contained 10 mice, half female and half male. The dose of the appropriate compound was administered through the tail vein at an administration volume of 0.2 mL. The animal blood routine, body weight and animal feed consumption were performed before administration and on days 4, 7, 14, 21 and 28 after administration. At the end of the observation period, the surviving mice were dissected, and histopathological examination was performed on the myocardium, liver, spleen, lung, kidney, stomach, intestine, gonad, bone, muscle and brain of each mouse.

[5] = clinical; details: human, in vivo, total radioactivity
Experimental: (§2) Twenty-two healthy volunteers gave informed consent and agreed to participate in the study. […] Each patient was injected with an average activity of 1.9 MBq/kg. The timing of image acquisition ranged from 30 to 45 min after injection (3 min/bed position). The PET image was attenuated and then reconstructed using the iterative reconstruction algorithm implemented.

[6] = test system: healthy volunteers; test: clinical; details: human, in vivo
Experimental: as §2

C[C@@H](O)[C@@H]1NC(=O)[C@H](CCCCN)NC(=O)[C@@H](Cc2c[nH]c3ccccc23)NC(=O)[C@H](Cc2ccccc2)NC(=O)[C@@H](NC(=O)[C@@H](Cc2ccccc2)NC(=O)CN2CCN(CC(=O)O)CCN(CC(=O)O)CC2)CSSC[C@@H](C(=O)N[C@H](CO)[C@@H](C)O)NC1=O [^68Ga-NOTA-TATE, metal not drawn]
fraction unbound at 2 h [1]: 0.879
tissue to tissue ratio at 0.25 h [2]: 12.5
tissue to tissue ratio at 0.5 h [2]: 8.45
tissue to tissue ratio at 1 h [2]: 39.5
tissue to tissue ratio at 2 h [2]: 44.3
tissue to tissue ratio at 0.25 h ([2]; 15 min postinjection, read-out: Tumour/kidney ratio): 0.18
tissue to tissue ratio at 0.5 h ([2]; 0.5 h postinjection, read-out: Tumour/kidney ratio): 0.94
tissue to tissue ratio at 1 h ([2]; 1 h postinjection, read-out: Tumour/kidney ratio): 0.81
tissue to tissue ratio at 2 h ([2]; 2 h postinjection, read-out: Tumour/kidney ratio): 0.79
tissue uptake at 0.25 h ([2]; %ID/g Blood): 3.25 ± 1.06 %ID/g
tissue uptake at 0.5 h ([2]; %ID/g Blood): 1.01 ± 0.42 %ID/g
tissue uptake at 1 h ([2]; %ID/g Blood): 0.58 ± 0.24 %ID/g
tissue uptake at 2 h ([2]; %ID/g Blood): 0.07 ± 0.06 %ID/g
tissue uptake at 0.25 h ([2]; %ID/g Gallbladder): 3.62 ± 1.94 %ID/g
tissue uptake at 0.5 h ([2]; %ID/g Gallbladder): 6.21 ± 2.69 %ID/g
tissue uptake at 1 h ([2]; %ID/g Gallbladder): 1.83 ± 0.84 %ID/g
tissue uptake at 2 h ([2]; %ID/g Gallbladder): 1.61 ± 0.67 %ID/g
tissue uptake at 0.25 h ([2]; %ID/g Intestines): 0.07 ± 0.04 %ID/g
tissue uptake at 0.5 h ([2]; %ID/g Intestines): 0.03 ± 0.02 %ID/g
tissue uptake at 1 h ([2]; %ID/g Intestines): 0.21 ± 0.09 %ID/g
tissue uptake at 2 h ([2]; %ID/g Intestines): 0.13 ± 0.07 %ID/g
tissue uptake at 0.25 h ([2]; %ID/g Kidney): 17.1 ± 6.39 %ID/g
tissue uptake at 0.5 h ([2]; %ID/g Kidney): 4.23 ± 2.73 %ID/g
tissue uptake at 1 h ([2]; %ID/g Kidney): 3.79 ± 2.16 %ID/g
tissue uptake at 2 h ([2]; %ID/g Kidney): 1.69 ± 1.02 %ID/g
tissue uptake at 0.25 h ([2]; %ID/g Liver): 1.19 ± 0.54 %ID/g
tissue uptake at 0.5 h ([2]; %ID/g Liver): 0.43 ± 0.23 %ID/g
tissue uptake at 1 h ([2]; %ID/g Liver): 0.07 ± 0.04 %ID/g
tissue uptake at 2 h ([2]; %ID/g Liver): 0.04 ± 0.02 %ID/g
tissue uptake at 0.25 h ([2]; %ID/g Lungs): 3.64 ± 1.56 %ID/g
tissue uptake at 0.5 h ([2]; %ID/g Lungs): 0.21 ± 0.17 %ID/g
tissue uptake at 1 h ([2]; %ID/g Lungs): 0.64 ± 0.41 %ID/g
tissue uptake at 2 h ([2]; %ID/g Lungs): 0.48 ± 0.21 %ID/g
tissue uptake at 0.25 h ([2]; %ID/g Muscle): 0.26 ± 0.03 %ID/g
tissue uptake at 0.5 h ([2]; %ID/g Muscle): 0.47 ± 0.26 %ID/g
tissue uptake at 1 h ([2]; %ID/g Muscle): 0.08 ± 0.06 %ID/g
tissue uptake at 2 h ([2]; %ID/g Muscle): 0.03 ± 0.01 %ID/g
tissue uptake at 0.25 h ([2]; %ID/g Skeleton): 2.14 ± 1.41 %ID/g
tissue uptake at 0.5 h ([2]; %ID/g Skeleton): 1.46 ± 0.37 %ID/g
tissue uptake at 1 h ([2]; %ID/g Skeleton): 0.85 ± 0.38 %ID/g
tissue uptake at 2 h ([2]; %ID/g Skeleton): 0.13 ± 0.07 %ID/g
tissue uptake at 0.25 h ([2]; %ID/g Spleen): 0.19 ± 0.08 %ID/g
tissue uptake at 0.5 h ([2]; %ID/g Spleen): 0.13 ± 0.11 %ID/g
tissue uptake at 1 h ([2]; %ID/g Spleen): 0.12 ± 0.06 %ID/g
tissue uptake at 2 h ([2]; %ID/g Spleen): 0.03 ± 0.01 %ID/g
tissue uptake at 0.25 h ([2]; %ID/g Stomach): 0.19 ± 0.13 %ID/g
tissue uptake at 0.5 h ([2]; %ID/g Stomach): 3.55 ± 1.83 %ID/g
tissue uptake at 1 h ([2]; %ID/g Stomach): 1.61 ± 1.03 %ID/g
tissue uptake at 2 h ([2]; %ID/g Stomach): 1.11 ± 0.21 %ID/g
tissue uptake at 0.25 h ([2]; %ID/g Tumour): 3.24 ± 1.03 %ID/g
tissue uptake at 0.5 h ([2]; %ID/g Tumour): 3.97 ± 2.24 %ID/g
tissue uptake at 1 h ([2]; %ID/g Tumour): 3.16 ± 1.92 %ID/g
tissue uptake at 2 h ([2]; %ID/g Tumour): 1.33 ± 0.96 %ID/g
SUV at 0.5 h ([3]; 30 min after i.v. injection): 3.02 SUV
SUV at 2 h ([3]; 120 min after i.v. injection): 1.64 SUV
acute animal toxicity, overall finding [4]: no apparent toxicity
histopathological examination [4]: no toxic pathological changes
SUV ([5]; both sexes, 1.9 MBq/kg, SUVmax Adrenals, average): 10.7 SUV
SUV ([5]; both sexes, 1.9 MBq/kg, SUVmax Blood pool, average): 1.4 SUV
SUV ([5]; both sexes, 1.9 MBq/kg, SUVmax Bone marrow, average): 0.9 SUV
SUV ([5]; both sexes, 1.9 MBq/kg, SUVmax Kidneys, average): 14.1 SUV
SUV ([5]; both sexes, 1.9 MBq/kg, SUVmax Large bowel, average): 1.5 SUV
SUV ([5]; both sexes, 1.9 MBq/kg, SUVmax Liver, average): 4.2 SUV
SUV ([5]; both sexes, 1.9 MBq/kg, SUVmax Lungs, average): 0.6 SUV
SUV ([5]; both sexes, 1.9 MBq/kg, SUVmax Lymph nodes, average): 1.2 SUV
SUV ([5]; both sexes, 1.9 MBq/kg, SUVmax Palatine tonsil, average): 1.3 SUV
SUV ([5]; both sexes, 1.9 MBq/kg, SUVmax Pancreas, average): 3.7 SUV
SUV ([5]; both sexes, 1.9 MBq/kg, SUVmax Parotid gland, average): 0.9 SUV
SUV ([5]; both sexes, 1.9 MBq/kg, SUVmax Pituitary gland, average): 1.5 SUV
SUV ([5]; both sexes, 1.9 MBq/kg, SUVmax Small bowel, average): 1.8 SUV
SUV ([5]; both sexes, 1.9 MBq/kg, SUVmax Spleen, average): 14.6 SUV
SUV ([5]; both sexes, 1.9 MBq/kg, SUVmax Stomach, average): 2.4 SUV
SUV ([5]; both sexes, 1.9 MBq/kg, SUVmax Submandibular, average): 1.2 SUV
SUV ([5]; both sexes, 1.9 MBq/kg, SUVmax Thymus, average): 1.1 SUV
SUV ([5]; both sexes, 1.9 MBq/kg, SUVmax Thyroid, average): 1.7 SUV
SUV ([5]; both sexes, iv, 1.9 MBq/kg, SUVmax Breast, average): 0.7 SUV
SUV ([5]; iv, 1.86 mCi, SUVmax kidney, single volunteer): 12.5 SUV
SUV ([5]; iv, 1.86 mCi, SUVmax liver, single volunteer): 1.4 SUV
SUV ([5]; iv, 1.86 mCi, SUVmax pituitary, single volunteer): 1.9 SUV
SUV ([5]; iv, 1.86 mCi, SUVmax spleen, single volunteer): 6.8 SUV
SUV ([5]; iv, 3.83 mCi, SUVmax kidney, single volunteer): 6.2 SUV
SUV ([5]; iv, 3.83 mCi, SUVmax liver, single volunteer): 1.3 SUV
SUV ([5]; iv, 3.83 mCi, SUVmax pituitary, single volunteer): 0.7 SUV
SUV ([5]; iv, 3.83 mCi, SUVmax spleen, single volunteer): 3.9 SUV
SUVmax Adrenals, range [6]: 5.7~15.6
SUVmax Blood pool, range [6]: 0.9~1.6
SUVmax Bone marrow, range [6]: 0.7~1.1
SUVmax Breast, range [6]: 0.5~1.1
SUVmax Kidneys, range [6]: 6.2~20.3
SUVmax Large bowel, range [6]: 1.0~2.4
SUVmax Liver, range [6]: 1.3~6.3
SUVmax Lungs, range [6]: 0.3~0.9
SUVmax Lymph nodes, range [6]: 0.8~1.4
SUVmax Palatine tonsil, range [6]: 0.6~1.8
SUVmax Pancreas, range [6]: 2.0~5.5
SUVmax Parotid gland, range [6]: 0.7~1.3
SUVmax Pituitary gland, range [6]: 0.7~2.3
SUVmax Small bowel, range [6]: 1.4~2.5
SUVmax Spleen, range [6]: 10.7~17.1
SUVmax Stomach, range [6]: 1.6~4.9
SUVmax Submandibular, range [6]: 0.7~1.4
SUVmax Thymus, range [6]: 0.6~1.4
SUVmax Thyroid, range [6]: 1.2~2.5
radioactivity in the gallbladder [6]: not seen
side effects after administration [6]: no apparent side effects
uptake in the brain [6]: No apparent

— publication PMC7158967, “Comparative evaluation of ^68Ga-labelled TATEs: the impact of chelators on imaging” (EJNMMI Research, 2020)
